Substrate in data set [1]: CC(C)=CCO
The experiment in a line: Prenol phosphorylation, pyruvate kinase/lactate dehydrogenase coupled assay (ADP release), E. coli kinase. It counts as biochemical, Escherichia coli. As to conditions: other: prenol, 5 mM ATP, pH 7.5, 37° C., enzyme 0.5 mg/ml. On the procedure: (§1) The genes encoding the enzymes of interest were cloned in the pET 25b(+) vector (Novagen). Nucleotide sequences encoding a chloroplast transit peptide in plant terpene synthases were removed, resulting in DNA sequences encoding the mature proteins only. […] Competent E. coli BL21(DE3) cells (Novagen) were transformed with this vector by heat shock. The transformed cells were grown with shaking (160 rpm) on ZYM-5052 auto-induction medium (Studier FW, Prot. Exp. Pur. 41, (2005), 207-234) for 6 h at 37° C. and protein expression was continued at 28° C. or 20° C. overnight (approximately 16 h). The cells were collected by centrifugation at 4° C., 10,000 rpm for 20 min and the pellets were frozen at −80° C.
(§2) The pellets from 200 ml of culture cells were thawed on ice and resuspended in 5 ml of Na2HPO4 pH 8 containing 300 mM NaCl, 5 mM MgCl2 and 1 mM DTT. Twenty microliters of lysonase (Novagen) were added. Cells were incubated 10 minutes at room temperature and then returned to ice for 20 minutes. Cell lysis was completed by sonication for 3×15 seconds. The bacterial extracts were then clarified by centrifugation at 4° C., 10,000 rpm for 20 min. The clarified bacterial lysates were loaded on PROTINO-1000 Ni-TED column (Macherey-Nagel) allowing adsorption of 6-His tagged proteins. Columns were washed and the enzymes of interest were eluted with 4 ml of 50 mM Na2HPO4 pH 8 containing 300 mM NaCl, 5 mM MgCl2, 1 mM DTT, 250 mM imidazole. […] Protein concentrations were quantified according to the Bradford method. […]
(§3) The purified 4-methyl-5-(2-hydroxyethyl) thiazole kinases from Escherichia coli, Bacillus subtilis, Rhizobium leguminosarum were evaluated for their ability to phosphorylate prenol. The release of ADP associated to prenol phosphorylation was quantified using the pyruvate kinase/lactate dehydrogenase coupled assay (FIG. 4). […]
(§4) Each assay was started by the addition of the enzyme at a final concentration 0.5 mg/ml and the decrease of NADH was monitored by following its absorbance at 340 nm. […]

Substrate in data set [2]: C=C(C)CCO
Briefly: Isoprenol phosphorylation, pyruvate kinase/lactate dehydrogenase coupled assay (ADP release), E. coli kinase. It counts as biochemical, Escherichia coli. As to conditions: other: isoprenol 0-40 mM, 5 mM ATP, pH 7.5, 37° C., enzyme 0.025 mg/ml. On the procedure: as §1, §2
(§5) The release of ADP that is associated with isoprenol phosphorylation was quantified using the pyruvate kinase/lactate dehydrogenase coupled assay (FIG. 4). The purified 4-methyl-5-(2-hydroxyethyl)thiazole kinases from Escherichia coli, Bacillus subtilis, Rhizobium leguminosarum were thus evaluated for their ability to phosphorylate isoprenol. […]
(§6) Each assay was started by the addition of the enzyme at a final concentration 0.025 mg/ml and the decrease of NADH was monitored by following its absorbance at 340 nm. […]

Substrate in data set [3]: CC(C)=CCO
The experiment in a line: Prenol phosphorylation, pyruvate kinase/lactate dehydrogenase coupled assay (ADP release), R. leguminosarum kinase. It counts as biochemical, Rhizobium leguminosarum. The conditions noted are these: other: prenol, 5 mM ATP, pH 7.5, 37° C., enzyme 0.5 mg/ml. On the procedure: as §1, §2, §3, §4

Substrate in data set [4]: C=C(C)CCO
The experiment in a line: Isoprenol phosphorylation, pyruvate kinase/lactate dehydrogenase coupled assay (ADP release), R. leguminosarum kinase. It counts as biochemical, Rhizobium leguminosarum. The conditions noted are these: other: isoprenol 0-40 mM, 5 mM ATP, pH 7.5, 37° C., enzyme 0.025 mg/ml. On the procedure: as §1, §2, §5, §6

Substrate in data set [5]: C=C(C)CCO
Briefly: Isoprenol phosphorylation, pyruvate kinase/lactate dehydrogenase coupled assay (ADP release), B. subtilis kinase. Format: biochemical, Bacillus subtilis. As to conditions: other: isoprenol 0-40 mM, 5 mM ATP, pH 7.5, 37° C., enzyme 0.025 mg/ml. On the procedure:
as §1, §2, §5, §6

Substrate in data set [6]: CC(C)=CCO
Briefly: Prenol phosphorylation, pyruvate kinase/lactate dehydrogenase coupled assay (ADP release), B. subtilis kinase. It counts as biochemical, Bacillus subtilis. As to conditions: other: prenol, 5 mM ATP, pH 7.5, 37° C., enzyme 0.5 mg/ml. On the procedure: as §1, §2, §3, §4

Data set [7] is described as follows: Screening for isoprene production from isoprenyl monophosphate with purified terpene synthases. It counts as biochemical. As to conditions: 10 mM isoprenyl monophosphate, 37° C., 17 h, GC-FID / GC-MS of headspace. On the procedure:
The enzymatic assays were carried out under the following conditions at 37° C.:
10 mM isoprenyl monophosphate (Sigma)
2.5 mg of the terpene synthase was added to 0.5 ml of reaction mixture. An enzyme-free control reaction was carried out in parallel. Assays were incubated at 37° C. for 17 h in a 1.5 ml sealed glass vial (Interchim) with shaking. One ml of the headspace phase was then collected and injected into a gas chromatograph Varian 430-GC chromatograph equipped with a flame ionization detector (FID). Nitrogen was used as carrier gas with a flow rate of 30 mL/min. Volatile compounds were chromatographically separated on Rtx-1 column (Restek) using an isothermal mode at 100° C. The enzymatic reaction product was identified by direct comparison with isoprene standard (Sigma). Under these GC conditions, the retention time for isoprene was 3.47 min. […] Gas chromatography-mass spectrometry (GC-MS) was then used to confirm the identity of the product detected by gas chromatography with flame ionization. The samples were analyzed on a Varian 3400Cx gas chromatograph equipped with Varian Saturn 3 mass selective detector. A mass spectrum of isoprene obtained by enzymatic conversion of isoprenyl monophosphate was similar to the one of commercial isoprene (FIG. 8).

Substrate in data set [8]: CC(C)=CCOP(=O)(O)O
The experiment in a line: purified protein, by the assay type. As to conditions: other: prenyl monophosphate 0-150 mM, pH 7.5, 20 mM MgCl2, 37° C., 18 h, enzyme 2 mg/ml.

Substrate in data set [9]: C=C(C)CCOP(=O)(O)O
Briefly: Isoprene production from isoprenyl monophosphate, GC/FID. It counts as biochemical, Eucalyptus globulus. The conditions noted are these: other: isoprenyl monophosphate 0-150 mM, pH 7.5, 20 mM MgCl2, 37° C., 18 h, enzyme 4 mg/ml. On the procedure: as §1
The pellets from 200 ml of culture cells were thawed on ice and resuspended in 5 ml of Na2HPO4 pH 8 containing 300 mM NaCl, 5 mM MgCl2 and 1 mM DTT. […] Protein concentrations were quantified according to the Bradford method. […]
2.5 mg of the terpene synthase was added to 0.5 ml of reaction mixture. […] Gas chromatography-mass spectrometry (GC-MS) was then used to confirm the identity of the product detected by gas chromatography with flame ionization. The samples were analyzed on a Varian 3400Cx gas chromatograph equipped with Varian Saturn 3 mass selective detector. […]
Kinetic parameters of isoprene production were evaluated in the following conditions: […]

B1: Escherichia coli 4-methyl-5-(2-hydroxyethyl)thiazole kinase (hydroxyethylthiazole kinase, EC 2.7.1.50) (Escherichia coli K-12) (protein)
chain: MQVDLLGSAQSAHALHLFHQHSPLVHCMTNDVVQTFTANTLLALGASPAMVIETEEASQFAAIASALLINVGTLTQPRAQAMRAAVEQAKSSQTPWTLDPVAVGALDYRRHFCHELLSFKPAAIRGNASEIMALAGIANGGRGVDTTDAAANAIPAAQTLARETGAIVVVTGEMDYVTDGHRIIGIHGGDPLMTKVVGTGCALSAVVAACCALPGDTLENVASACHWMKQAGERAVARSEGPGSFVPHFLDALWQLTQEVQA
As a reminder, the Km is the concentration of substrate that gives half-maximal velocity. One may read the kcat as the maximal rate divided by the concentration of active sites. Usually kcat/Km stands for the second-order rate constant that governs catalysis at low substrate concentration. As to B1, in data set [1], the Michaelis constant (Km) is 3 mM, the kcat stood at 0.05 s⁻¹ and the kcat/Km was determined as 16 M⁻¹ s⁻¹. For the same molecule, in data set [2], the Km is listed as 7.5 mM, the kcat turned out to be 1 s⁻¹ and the kcat/Km worked out at 130 M⁻¹ s⁻¹.

B2: Rhizobium leguminosarum 4-methyl-5-(2-hydroxyethyl)thiazole kinase (hydroxyethylthiazole kinase, EC 2.7.1.50) (Rhizobium johnstonii 3841) (protein)
chain: MQTRTTPGAMLKAMREKPPLVQCITNYVAMNIAANVLLAAGASPAMVHAAEEAGEFAAIASALTINIGTLSTQWIDGMQAAAKAATSAGKPWVLDPVAHYATAFRRNAVAELLALKPTIIRGNASEIIALAGGESRGQGVDSRDPVEQAEGSARWLAERQRAVVAVTGAVDFVTDGERAVRIEGGSALMPQVTALGCSLTCLVGAFAATAPEDIFGATVAALSTFAIAGEEAALGAAGPGSFSWRFLDALAALDAETLDARARISAA
Consider B2, for which, in data set [3], the Km stood at 10 mM, the catalytic constant (kcat) came out at 0.01 s⁻¹ and the specificity constant (kcat/Km) came to 1 M⁻¹ s⁻¹. Also, in [4], the Km is recorded as 10 mM, the kcat amounted to 0.8 s⁻¹ and the kcat/Km stood at 80 M⁻¹ s⁻¹.

B3: Bacillus subtilis 4-methyl-5-(2-hydroxyethyl)thiazole kinase (hydroxyethylthiazole kinase, EC 2.7.1.50) (Bacillus subtilis subsp. subtilis str. 168) (protein)
chain: MDAQSAAKCLTAVRRHSPLVHSITNNVVTNFTANGLLALGASPVMAYAKEEVADMAKIAGALVLNIGTLSKESVEAMIIAGKSANEHGVPVILDPVGAGATPFRTESARDIIREVRLAAIRGNAAEIAHTVGVTDWLIKGVDAGEGGGDIIRLAQQAAQKLNTVIAITGEVDVIADTSHVYTLHNGHKLLTKVTGAGCLLTSVVGAFCAVEENPLFAAIAAISSYGVAAQLAAQQTADKGPGSFQIELLNKLSTVTEQDVQEWATIERVTVS
notes: homotrimer
Take B3: in data set [5], the Km was determined as 3 mM, the kcat came out at 0.03 s⁻¹ and the kcat/Km was found to be 10 M⁻¹ s⁻¹. Besides, in data set [6], the Km is given as 3 mM, the kcat is 0.006 s⁻¹ and the catalytic efficiency (kcat/Km) is 2 M⁻¹ s⁻¹.

B4: monoterpene synthase from E. globulus: purified monoterpene synthase of Eucalyptus globulus (UniProt Q0PCI4, SEQ ID NO: 6) (protein, listed as Eucalyptus globulus)
chain: MALRLLFTPHLPVLSSRRANGRVRCSASTQISDPQEGRRSANYQPSVWTYNYLQSIVAGEGRQSRREVEQQKEKVQILEEEVRGALNDEKAETFTIFATVDDIQRLGLGDHFEEDISNALRRCVSKGAVFMSLQKSLHGTALGFRLLRQHGYEVSQDVFKIFLDESGSFVKTLGGDVQGVLSLYEASHLAFEEEDILHKARSFAIKHLENLNSDVDKDLQDQVKHELELPLHRRMPLLEARRSIEAYSRREYTNPQILELALTDFNVSQSTLQRDLQEMLGWWNNTGLAKRLSFARDRLIECFFWAVGIAHEPSLSICRKAVTKAFALILVLDDVYDVFGTLEELELFTEAVRRWDLNAVEDLPVYMKLCYLALYNSVNEMAYETLKEKGENVIPYLAKAWYDLCKAFLQEAKWSNSRIIPGVEEYLNNGWVSSSGSVMLIHAYFLASPSIRKEELESLEHYHDLLRLPSLIFRLTNDIASSSAELERGETTNSIRCFMQEKGISELEARECVKEEIDTAWKKMNKYMVDRSTFNQSFVRMTYNLARMAHCVYQDGDAIGSPDDLSWNRVHSLIIKPISPAA
In the case of B4, the “Isoprene production from isoprenyl monophosphate” value in data set [7] is reported as “isoprene produced”.

B5: Eucalyptus globulus monoterpene synthase (UniProt Q0PCI4), SEQ ID NO: 6 (Eucalyptus globulus) (protein)
chain: ASTQISDPQEGRRSANYQPSVWTYNYLQSIVAGEGRQSRREVEQQKEKVQILEEEVRGALNDEKAETFTIFATVDDIQRLGLGDHFEEDISNALRRCVSKGAVFMSLQKSLHGTALGFRLLRQHGYEVSQDVFKIFLDESGSFVKTLGGDVQGVLSLYEASHLAFEEEDILHKARSFAIKHLENLNSDVDKDLQDQVKHELELPLHRRMPLLEARRSIEAYSRREYTNPQILELALTDFNVSQSTLQRDLQEMLGWWNNTGLAKRLSFARDRLIECFFWAVGIAHEPSLSICRKAVTKAFALILVLDDVYDVFGTLEELELFTEAVRRWDLNAVEDLPVYMKLCYLALYNSVNEMAYETLKEKGENVIPYLAKAWYDLCKAFLQEAKWSNSRIIPGVEEYLNNGWVSSSGSVMLIHAYFLASPSIRKEELESLEHYHDLLRLPSLIFRLTNDIASSSAELERGETTNSIRCFMQEKGISELEARECVKEEIDTAWKKMNKYMVDRSTFNQSFVRMTYNLARMAHCVYQDGDAIGSPDDLSWNRVHSLIIKPISPAA
For B5, the Km was found to be 60 mM in [8] and 40 mM in data set [9]. In addition, the kcat in data set [8] turned out to be 0.00056 s⁻¹; in data set [9], 1.6e-05 s⁻¹.

Values taken from patent US20150284743A1, “METHODS FOR THE ENZYMATIC PRODUCTION OF ISOPRENE FROM ISOPRENOL” (GLOBAL BIOENERGIES, priority 2012, published 2015).
